Legend:
[1] = target: surface-immobilized biotinylated microtubules, Q2XVP4;Q767L7; assay: fluorescence intensity of GFP-tagged MAP9-MTBD on surface-immobilized MTs (fluorescence microscopy); details: 100 nM MAP9 construct (stated for panel h); parent: est. 0.72; read off a plot
[2] = target: surface-immobilized biotinylated microtubules (pig) (UniProt Q2XVP4); assay: TIRF microscopy, fluorescence intensity of GFP-tagged MAP on microtubules; biotinylated MTs held on a streptavidin-coated coverslip; one concentration of WT or mutant MAP9 construct (100 nM in Fig. 1h-i and Extended Data Fig. 6b); BRB80, 100 mM salt

## MAP9-MTBD (Human MAP9 (302–647)::GFP::strepII) (from UniProt Q49MG5) F473A; F516A
[1]
  response: 0.17 a.u.

## MAP9-MTBD (Human MAP9 (302–647)::GFP::strepII) (from UniProt Q49MG5) W432A; W476A; W519A; W563A; W606A
[1]
  response: 0.04 a.u.

## MAP9-MTBD R1R2 (from UniProt Q49MG5 302-647) (domain or fragment)
[2]
  percent reduction of MT binding against WT MAP9-MTBD: 80%

Reference: doi:10.1101/2025.11.17.688911
